The results in this text go back to patent publication US20240201167A1 (ALBERT EINSTEIN COLLEGE OF MEDICINE, published 2024).

B1: p75NTR-mIgG2a (Fc fusion)
chain: KEACPTGLYTHSGECCKACNLGEGVAQPCGANQTVCEPCLDSVTFSDVVSATEPCKPCTECVGLQSMSAPCVEADDAVCRCAYGYYQDETTGRCEACRVCEAGSGLVFSCQDKQNTVCEECPDGTYSDEANHVDPCLPCTVCEDTERQLRECTRWADAECEEIPGRWITRSTPPEGSDSTAPSTQEPEAPPEQDLIASTVAGVVTTVMGSSQPVVTRGTTDN
notes: Full-length ectodomain; also called p75-mIgG2A; recombinant p75 mIgG2a; not shown: C-terminal mIgG2a-His10 Fc domain
B2: human p75 neurotrophin receptor, full length, expressed on HEK 293 cells (receptor)
chain: KEACPTGLYTHSGECCKACNLGEGVAQPCGANQTVCEPCLDSVTFSDVVSATEPCKPCTECVGLQSMSAPCVEADDAVCRCAYGYYQDETTGRCEACRVCEAGSGLVFSCQDKQNTVCEECPDGTYSDEANHVDPCLPCTVCEDTERQLRECTRWADAECEEIPGRWITRSTPPEGSDSTAPSTQEPEAPPEQDLIASTVAGVVTTVMGSSQPVVTRGTTDNLIPVYCSILAAVVVGLVAYIAFKRWNSCKQNKQGANSRPVNQTPPPEGEKLHSDSGISVDSQSLHDQQPHTQTASGQALKGDGGLYSSLPPAKREEVEKLLNGSAGDTWRHLAGELGYQPEHIDSFTHEACPVRALLASWATQDSATLDALLAALRRIQRADLVESLCSESTATSPV
notes: Full-length human p75 with a cytosolic fluorescent tag (GFP); also called p75NTR; NGFR

The target of one experiment is T1, human B7-1 N82E on cells (Homo sapiens, UniProt P33681 35-280).
T1 construct: C-terminally fused to mCherry; also called ASN82 GLU
T1 chain: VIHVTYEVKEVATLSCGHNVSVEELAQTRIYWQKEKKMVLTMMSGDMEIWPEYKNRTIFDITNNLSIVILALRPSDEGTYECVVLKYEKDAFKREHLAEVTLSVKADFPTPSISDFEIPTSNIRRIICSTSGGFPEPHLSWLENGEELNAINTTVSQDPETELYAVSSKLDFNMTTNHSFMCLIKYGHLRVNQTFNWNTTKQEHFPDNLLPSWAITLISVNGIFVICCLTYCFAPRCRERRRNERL
The experiment is described as follows: cell-cell binding, flow cytometry; percent of the wild-type pair.

Experiment [1] concerns the target T2, human B7-1 K127D on cells (Homo sapiens, UniProt P33681 35-280).
T2 construct: mCherry-tagged point mutant; also called LYS127 ASP
T2 chain: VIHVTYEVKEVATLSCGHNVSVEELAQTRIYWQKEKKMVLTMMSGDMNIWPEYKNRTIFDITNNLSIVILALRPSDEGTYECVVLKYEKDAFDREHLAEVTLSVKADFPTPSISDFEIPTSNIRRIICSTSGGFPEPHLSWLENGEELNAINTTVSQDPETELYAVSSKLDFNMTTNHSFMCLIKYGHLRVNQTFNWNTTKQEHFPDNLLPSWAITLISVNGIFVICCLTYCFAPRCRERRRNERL
The experiment is described as above.

The target in experiment [2] is T3, human B7-1 K120D on cells (Homo sapiens, UniProt P33681 35-280).
T3 construct: mCherry-tagged point mutant; also called LYS120 ASP
T3 chain: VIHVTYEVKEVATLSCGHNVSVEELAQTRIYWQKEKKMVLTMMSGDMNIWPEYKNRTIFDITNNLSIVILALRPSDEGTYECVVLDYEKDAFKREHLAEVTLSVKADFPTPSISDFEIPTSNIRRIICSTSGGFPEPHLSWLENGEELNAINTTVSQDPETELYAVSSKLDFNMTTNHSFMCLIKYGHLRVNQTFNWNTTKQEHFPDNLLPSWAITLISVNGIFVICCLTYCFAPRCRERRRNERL
The description is as above.

Experiment [3] addresses T4, human B7-1 K139D on cells (Homo sapiens, UniProt P33681 35-280).
T4 construct: mCherry-tagged point mutant; also called LYS139ASP; LYS139 ASP
T4 chain: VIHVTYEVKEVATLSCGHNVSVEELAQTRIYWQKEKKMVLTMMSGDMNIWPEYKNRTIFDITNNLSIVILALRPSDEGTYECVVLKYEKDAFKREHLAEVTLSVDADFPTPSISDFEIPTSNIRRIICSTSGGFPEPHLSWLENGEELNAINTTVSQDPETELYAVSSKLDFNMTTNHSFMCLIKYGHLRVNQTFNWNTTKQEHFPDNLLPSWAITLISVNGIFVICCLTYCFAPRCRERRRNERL
The experiment is described as above.

For the next experiment, the target named is T5, human B7-1 R63D on cells (Homo sapiens, UniProt P33681 35-280).
T5 construct: mCherry-tagged point mutant; also called ARG63 ASP
T5 chain: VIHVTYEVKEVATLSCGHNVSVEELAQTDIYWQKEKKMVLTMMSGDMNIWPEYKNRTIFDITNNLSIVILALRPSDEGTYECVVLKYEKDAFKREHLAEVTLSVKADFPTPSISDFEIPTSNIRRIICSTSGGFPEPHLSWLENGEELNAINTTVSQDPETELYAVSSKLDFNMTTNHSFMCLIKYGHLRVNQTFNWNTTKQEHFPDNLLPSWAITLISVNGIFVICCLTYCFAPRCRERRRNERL
Described as above.

Experiment [4] addresses human B7-1 (CD80), full length, expressed on HEK 293 cells (Homo sapiens) (UniProt P33681). Described as above.
Experiment [5] addresses T6, B7-1-hIgG1-biotin (human, UniProt P33681 35-233, biotin on the AVI tag (BirA)).
T6 construct: Loaded on streptavidin beads; the paragraph gives residues only; also called B7-1-Fc-biotin; hB7-1 (residues 35-233) hIgG1-His10-AVI; not shown: C-terminal 10xHis and AVI tagged hIgG1 Fc domain
T6 chain: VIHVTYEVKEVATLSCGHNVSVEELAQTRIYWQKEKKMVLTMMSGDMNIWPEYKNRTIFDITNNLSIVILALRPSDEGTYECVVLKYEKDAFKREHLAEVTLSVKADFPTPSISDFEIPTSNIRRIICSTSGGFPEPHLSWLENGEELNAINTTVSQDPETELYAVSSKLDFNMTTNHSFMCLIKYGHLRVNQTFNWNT
The experiment is described as follows: p75-mIgG2A titrated on streptavidin beads coated with B7-1-hIgG1-biotin; anti-mIgG2A, flow cytometry. The source says:
(§1) Binding was detected by flow cytometry on a SONY Spectral Analyzer (SA 3800). Binding curves were fit using the equation Y=Bmax*Xh/(Kdh+Xh).

Experiment [6] concerns the target T6, B7-1-hIgG1-biotin. The experiment is described as follows: Fc fusions titrated on streptavidin beads coated with B7-1-hIgG1-biotin, flow cytometry.
Description: as §1

Experiment [7] has as its target T7, human B7-1 (CD80), full length, expressed on HEK 293 cells (Homo sapiens, UniProt P33681 35-280).
T7 construct: also called hB7-1; B7-1-mCherry
T7 sequence: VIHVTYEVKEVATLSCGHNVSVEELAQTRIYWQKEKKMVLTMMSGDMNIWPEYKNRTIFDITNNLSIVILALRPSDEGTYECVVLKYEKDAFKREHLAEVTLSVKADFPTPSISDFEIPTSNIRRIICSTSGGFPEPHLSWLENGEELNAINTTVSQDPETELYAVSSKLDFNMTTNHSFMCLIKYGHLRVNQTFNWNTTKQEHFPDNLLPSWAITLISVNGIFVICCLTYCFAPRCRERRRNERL
The experiment is described as follows: cell-cell binding, flow cytometry; percent of the wild-type pair.

The target of experiment [8] is T8, protein tyrosine phosphatase receptor type F expressed on cells (human, UniProt P10586 30-1907).
T8 construct: whole, on cells; also called PTPRF; PTPRF mCherry
The experiment is described as follows: cell-cell screen, flow cytometry. As to the method: (§2) As illustrated, cells were transfected with expression cassettes expressing labeled receptors or labeled ligands, receptor-expressing cells were mixed with ligand-expressing cells and cell-to-cell binding was monitored by detecting the labels associated with the receptor and the ligand. […] Binding was detected using an anti-mIgG2A ab and flow cytometry. The binding curves were fit and the Bmax, EC50, and hill coefficient were calculated using the equation Y=Bmax*Xh/(Kdh+Xh).

Experiment [9] concerns the target B2. The experiment is described as follows: cell-cell screen, flow cytometry. The protocol: as §2
In another experiment the target is T9, mouse CTLA-4-mIgG2a (mouse, UniProt P09793 36-161).
T9 construct: not shown: mIgG2a Fc
T9 sequence (P09793 36-161): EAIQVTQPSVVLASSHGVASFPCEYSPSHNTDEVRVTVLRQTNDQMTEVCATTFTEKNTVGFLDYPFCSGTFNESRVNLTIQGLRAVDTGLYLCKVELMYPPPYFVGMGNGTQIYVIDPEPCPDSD
The experiment is described as follows: Fc fusion on cells expressing chimera B7-1-GFP, flow cytometry. The protocol:
(§3) The arrow identifies the swapped exons. […] Binding was assessed using an anti mIgG2a-647 labeled antibody and flow cytometry.

The target of the experiment “p75NTR-mIgG2a” is B1. The experiment is described as above. The protocol: as §3

Turning to “human p75NTR mutant printed ARG166H on cells (from UniProt P08138 29-427) (receptor)”, the percent binding in the experiment with human B7-1 N82E on cells stood at 25%; in experiment [1] it was 26%; in experiment [2], 12%; in experiment [3], 26%; with human B7-1 R63D on cells, 8%; in experiment [4], 66%.
In the experiment with B7-1-hIgG1-biotin [5], B1 yielded an EC50 of 16 nM. Besides, in the experiment with B7-1-hIgG1-biotin [6], the “fold higher EC50 than B7-1:CTLA-4” value was around 30 fold.
Turning to B2, the percent binding with human B7-1 N82E on cells turned out to be 25%; in experiment [1] it was 26%; in [2] it was 20%; in experiment [3] it was 21%; in the experiment with human B7-1 R63D on cells, 30%; in experiment [7], 100%. Besides, the binding result in experiment [8] is “binds”.

B3: B7-2 expressed on cells (ligand, human, UniProt P42081 24-329, looked up)
chain: APLKIQAYFNETADLPCQFANSQNQSLSELVVFWQDQENLVLNEVYLGKEKFDSVHSKYMGRTSFDSDSWTLRLHNLQIKDKGLYQCIIHHKKPTGMIRIHQMNSELSVLANFSQPEIVPISNITENVYINLTCSSIHGYPEPKKMSVLLRTKNSTIEYDGVMQKSQDNVTELYDVSISLSVSFPDVTSNMTIFCILETDKTRLLSSPFSIELEDPQPPPDHIPWITAVLPTVIICVMVFCLILWKWKKKKRPRNSYKCGTNTMEREESEQTKKREKIHIPERSDEAQRVFKSSKTSSCDKSDTCF
notes: whole, on cells
Regarding B3, the binding result in [9] was “no binding”.

B4: ICOSL expressed on cells (ligand, human, UniProt O75144 19-302, looked up)
chain: DTQEKEVRAMVGSDVELSCACPEGSRFDLNDVYVYWQTSESKTVVTYHIPQNSSLENVDSRYRNRALMSPAGMLRGDFSLRLFNVTPQDEQKFHCLVLSQSLGFQEVLSVEVTLHVAANFSVPVVSAPHSPSQDELTFTCTSINGYPRPNVYWINKTDNSLLDQALQNDTVFLNMRGLYDVVSVLRIARTPSVNIGCCIENVLLQQNLTVGSQTGNDIGERDKITENPVSTGEKNAATWSILAVLCLLVVVAVAIGWVCRDRCLQHSYAGAWAVSPETELTGHV
notes: whole, on cells
On to B4, for which the binding result in experiment [9] was “no binding”.

B5: chimeric human-mouse B7-1 protein expressed on HEK 293 cells (ligand)
chain: VIHVTKEVKEVATLSCGHNVSVEELAQTRIYWQKEKKMVLTMMSGDMNIWPEYKNRTIFDITNNLSIVILALRPSDEGTYECVVLKYEKDAFKREHLAEVTLSVKADFSTPNITESGNPSADTKRITCFASGGFPKPRFSWLENGRELPGINTTISQDPESELYTISSQLDFNTTRNHTIKCLIKYGDAHVSEDFTWEKPPEDPPDSKNTLVLFGAGFGAVITVVVIVVIIKCFCKHRSCFRRNEASRETNNSLTFGPEEALAEQTVFL
notes: also called human-mouse chimera B7-1-GFP; h:mB7-1
Regarding B5, the binding result with mouse CTLA-4-mIgG2a and in the experiment with p75NTR-mIgG2a was “binds” each time.
